Assays:
epithelia = details: in vivo; cited from earlier work
airway epithelial cells = test: BrdU staining of KGF-treated airway cultures; assay type: cell-based, human; details: KGF 100 ng/ml, two consecutive days
Procedure: Identification of proliferating airway epithelial cells were performed using bromodeoxyuridine (BrdU) labeling reagents from Zymed Laboratories (South San Francisco, Calif.). Cells were treated with recombinant human keratinocyte growth factor (rKGF; Chiron, San Diego, Calif.) at 100 ng/ml for two consecutive days. The cells were then pulse labeled for 12 hr with a 1:100 dilution of the BrdU labeling reagent prior to fixation in 10% neutral buffered formalin. Histochemical staining of BrdU incorporation into nuclei was performed according to the manufacturer's instructions. Cells were counterstained with hematoxylin and the cell culture filters were examined by en face microscopy of the apical surface.

[1] = system: human bronchial epithelial cells; assay type: cell-based
Procedure: Primary human airway epithelial cells were collected by enzymatic digestion of bronchial samples from lung transplants as previously described (Kondo et al., 1991; Zabner et al., 1996). Isolated airway primary cells were seeded at a density of 5×10^5 cells/cm^2 onto collagen-coated Millicell-HA culture inserts (Millipore, Bedford, Mass.). Primary cultures were grown at the air-liquid interface for more than 2 wk, at which time differentiation into a mucociliary epithelium occurs. The culture medium, used to feed only the basolateral side of the cells, contained 49% Dulbecco's modified Eagle's medium (DMEM), 49% Ham's F12, and 2% Ultraser G (BioSepra, Cedex, France).
Recombinant AAV virus was produced by a CaPO4 co-transfection protocol and was purified through three rounds of isopycnic cesium chloride ultracentrifuigation, as previously described (Duan et al., 1997). […] Typical yields were 1×10^9 particles/μl, determined on the basis of DNA slot-blot hybridization assays against plasmid standards. […] Viral preparations were evaluated for the contamination of wild type AAV (wtAAV) by immunocytochemical staining of AV.GFP3ori/Ad.CMVLacZ (Duan et al., 1998)-coinfected 293 cells with anti-Rep antibodies (American Research Products, Belmont, Mass.). […]

B1: KGF: recombinant human keratinocyte growth factor (protein, UniProt P21781 32-194, looked up)
Fibroblast growth factor 7: CNDMTPEQMATNVNCSSPERHTRSYDYMEGGDIRVRRLFCRTQWYLRIDKRGKVKGTQEMKNNYNIMEIRTVAVGIVAIKGVESEFYLAMNKEGKLYAKKECNEDCNFKELILENHYNTYASAKWTHNGGEMFVALNQKGIPVRGKKTKKEQKTAHFLPMAIT
epithelia
  mutagenicity: is not mutagenic
Airway epithelial cells
  cell proliferation by BrdU incorporation: significant increases in cell proliferation
[1]; infection from the basal side
  long-term (40 day) gene expression after KGF: inhibited twofold
[1]; virus apical or basolateral
  efficiency of rAAV transduction after KGF: did not increase the efficiency of rAAV transduction

Source: US6855549B1, “Methods and compositions for increasing the infectivity of gene transfer vectors” (The University of Iowa Research Foundation, priority 1998, dated 2005)
